The text below walks through data of US20110293599A1 (EWHA UNIVERSITY INDUSTRY COLLABORATION FOUNDATION, published 2011).

For experiment [1], the target named is T1, Flag-tagged TAZ (transcriptional coactivator with PDZ-binding motif), full length (1-395 aa) (Mus musculus (Mouse), UniProt Q9EPK5 1-395).
T1 construct: also called TAZ FL; Flag-TAZ; not shown: Flag tag
As to the kind of experiment: co-immunoprecipitation from 293T cells, Flag-M2 beads, immunoblot.

Experiment [2] deals with T2, Myc-tagged MyoD, full length 318 aa (FL) (UniProt P10085 1-318).
T2 construct: Overexpressed in 293T cells; also called MyoD FL; not shown: Myc tag from the pCMV-Myc vector
T2 sequence (looked up): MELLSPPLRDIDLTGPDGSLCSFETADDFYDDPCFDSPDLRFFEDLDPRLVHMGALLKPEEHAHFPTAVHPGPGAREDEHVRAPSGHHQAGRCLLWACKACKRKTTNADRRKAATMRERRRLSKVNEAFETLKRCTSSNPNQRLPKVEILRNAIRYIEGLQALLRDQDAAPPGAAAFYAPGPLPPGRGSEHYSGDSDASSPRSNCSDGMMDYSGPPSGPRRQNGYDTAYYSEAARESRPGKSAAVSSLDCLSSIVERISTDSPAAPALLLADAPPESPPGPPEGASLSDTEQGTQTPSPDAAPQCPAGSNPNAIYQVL
Description: co-immunoprecipitation from 293T cells, Flag-M2 beads, MyoD immunoblot.

B1: NT MyoD (MyoD aa 1-102), Myc-tagged (other, UniProt P10085 1-102, looked up)
chain: MELLSPPLRDIDLTGPDGSLCSFETADDFYDDPCFDSPDLRFFEDLDPRLVHMGALLKPEEHAHFPTAVHPGPGAREDEHVRAPSGHHQAGRCLLWACKACK
notes: Coexpressed with Flag-TAZ in 293T cells; not shown: Myc tag from the pCMV-Myc vector
B1: in experiment [1], the binding result is recorded as “no binding”.

B2: TAZ truncation ΔN2 (aa 164-395 TAZ), lacking the WW domain (other)
chain: NHVNLHPSITSTSVPQRSMAVSQPNLAMNHQHQQVVATSLSPQNHPTQNQPTGLMSVPNALTTQQQQQQKLRLQRIQMERERIRMRQEELMRQEAALCRQLPMETETMAPVNTPAMSTDMRSVTNSSSDPFLNGGPYHSREQSTDSGLGLGCYSVPTTPEDFLSNMDEMDTGENSGQTPMTVNPQQTRFPDFLDCLPGTNVDLGTLESEDLIPLFNDVESALNKSEPFLTWL
notes: Cotransfected with MyoD into 293T cells; not shown: Flag tag, implied by the precipitation with Flag-M2 beads
Turning to B2, the binding result in experiment [2] was “no binding”.
